This note sets out measurements from paper PMC10786891, “Massively parallel profiling of RNA-targeting CRISPR-Cas13d”.

Broadly, the Kd is the constant that tells how readily two partners part at equilibrium.

First the molecules themselves.
B1: target 1 insG 3' of 2,insU 3' of 1 (mixed)
RNA 1: CACCCGUGCAAAAAUGCAGGGGUCUAAAACUGAGCGGAUAACCUCUCUAUGG
RNA 2: GGGAAUGGAUCCACAUCUACGAAUUCGUACCAUAGAGAGGUUAUCCGCUCGAUCCGAGAUCGGAAGAGCACACGU
B2: target 1 insG 3' of 14,insC 3' of 14 (mixed)
RNA 1: B1 RNA 1
RNA 2: GGGAAUGGAUCCACAUCUACGAAUUCGUACCAUAGAGAGCGGUUAUCCGCUCACCGAGAUCGGAAGAGCACACGU
B3: target 1 insA 3' of 17,insU 3' of 2 (mixed)
RNA 1: B1 RNA 1
RNA 2: GGGAAUGGAUCCACAUCUACGAAUUCGUACCAUAGAAGAGGUUAUCCGCUCUACCGAGAUCGGAAGAGCACACGU
B4: target 1 insC 3' of 20,insC 3' of 3 (mixed)
RNA 1: B1 RNA 1
RNA 2: B3 RNA 2 with U33C, A34U, G35A, A36G, U52C
B5: target 1 G5C,G12A (mixed)
RNA 1: B1 RNA 1
RNA 2: GGGAAUGGAUCCACAUCUACGAAUUCGUACCAUAGAGAGAUUAUCCCCUCACCGAGAUCGGAAGAGCACACGU
B6: target 1 del20 (mixed)
RNA 1: B1 RNA 1
RNA 2: GGGAAUGGAUCCACAUCUACGAAUUCGUACCUAGAGAGGUUAUCCGCUCACCGAGAUCGGAAGAGCACACGU
B7: target 1 insG 3' of 6,insA 3' of 2 (mixed)
RNA 1: B1 RNA 1
RNA 2: B1 RNA 2 with C48G, U49C, C50U, G51C, U53A
B8: target 1 insA 3' of 15,insU 3' of 4 (mixed)
RNA 1: B1 RNA 1
RNA 2: B3 RNA 2 with A37G, G38A, C51U, U52C
B9: target 1 del20,del22 (mixed)
RNA 1: B1 RNA 1
RNA 2: GGGAAUGGAUCCACAUCUACGAAUUCGUACUAGAGAGGUUAUCCGCUCACCGAGAUCGGAAGAGCACACGU
B10: target 1 insU 3' of 12,insC 3' of 5 (mixed)
RNA 1: B1 RNA 1
RNA 2: B3 RNA 2 with A37G, G38A, A39G, G41U, U50C, C51U, U52C
B11: target 1 C6U,G13U (mixed)
RNA 1: B1 RNA 1
RNA 2: B5 RNA 2 with G39U, A40G, C46U, C47G
B12: target 1 insA 3' of 10,insG 3' of 9 (mixed)
RNA 1: B1 RNA 1
RNA 2: B2 RNA 2 with C40G, G41U, G42U, U43A, U44A, A45G
B13: target 1 complement block 3-14 (mixed)
RNA 1: B1 RNA 1
RNA 2: GGGAAUGGAUCCACAUCUACGAAUUCGUACCAUAGAGUCCAAUAGGCGACACCGAGAUCGGAAGAGCACACGU
B14: target 1 G12U,G15A (mixed)
RNA 1: B1 RNA 1
RNA 2: B5 RNA 2 with G37A, A40U, C47G
B15: target 1 insA 3' of 4,insA 3' of 4 (mixed)
RNA 1: B1 RNA 1
RNA 2: B1 RNA 2 with U49A, C50A, G51U, A52C, U53A
B16: target 1 insG 3' of 18,insA 3' of 10 (mixed)
RNA 1: B1 RNA 1
RNA 2: B2 RNA 2 with A36G, G37A, A38G, G39A, C40G, G42U, U44A
B17: target 1 insA 3' of 22,insU 3' of 2 (mixed)
RNA 1: B1 RNA 1
RNA 2: B3 RNA 2 with C31A, A32C, U33A, A34U, G35A, A36G
B18: target 1 insG 3' of 18,insU 3' of 4 (mixed)
RNA 1: B1 RNA 1
RNA 2: B3 RNA 2 with A36G, C51U, U52C
B19: target 1 insG 3' of 11,insG 3' of 6 (mixed)
RNA 1: B1 RNA 1
RNA 2: B2 RNA 2 with C40G, G41U, U44A, A45U, U46C, C48G
B20: target 1 C7U,G13C (mixed)
RNA 1: B1 RNA 1
RNA 2: B5 RNA 2 with G39C, A40G, C45U, C47G
B21: target 1 insC 3' of 8,insA 3' of 5 (mixed)
RNA 1: B1 RNA 1
RNA 2: B1 RNA 2 with G47C, C48G, U49A, G51U, A52C, U53A
B22: target 1 insG 3' of 11,insU 3' of 9 (mixed)
RNA 1: B1 RNA 1
RNA 2: B2 RNA 2 with C40G, G41U, U44A, A45U
B23: target 1 insA 3' of 10,insG 3' of 7 (mixed)
RNA 1: B1 RNA 1
RNA 2: B1 RNA 2 with U44A, C45U, U49G, G51U, A52C, U53A
B24: target 1 del17,del19 (mixed)
RNA 1: B1 RNA 1
RNA 2: B9 RNA 2 with U31C, G33A
B25: target 1 insG 3' of 2,insA 3' of 2 (mixed)
RNA 1: B1 RNA 1
RNA 2: B1 RNA 2 with U53A
B26: target 1 C2A,C4A (mixed)
RNA 1: B1 RNA 1
RNA 2: B5 RNA 2 with A40G, C47G, C48A, C50A
B27: target 1 insG 3' of 6,insC 3' of 1 (mixed)
RNA 1: B1 RNA 1
RNA 2: B1 RNA 2 with C48G, U49C, C50U, G51C, U53C
B28: target 1 insG 3' of 11,insC 3' of 10 (mixed)
RNA 1: B1 RNA 1
RNA 2: B2 RNA 2 with C40G, G41U, U44C
B29: target 1 C6G,C22G (mixed)
RNA 1: B1 RNA 1
RNA 2: B5 RNA 2 with C30G, A40G, C46G, C47G
B30: target 1 A1C,G12A (mixed)
RNA 1: B1 RNA 1
RNA 2: B5 RNA 2 with C47G, A51C
B31: target 1 insU 3' of 20,insC 3' of 12 (mixed)
RNA 1: B1 RNA 1
RNA 2: B2 RNA 2 with A34U, G35A, A36G, G37A, A38G, G39A, C40G, G42C

Residue numbers refer to the chain shown, from its start. In names and notes the source's numbering stands.

The data set deals with T1, EsCas13d, nuclease-dead (Eubacterium siraeum, UniProt B0MS50, R295A;H300A;R849A;H854A).
T1 sequence: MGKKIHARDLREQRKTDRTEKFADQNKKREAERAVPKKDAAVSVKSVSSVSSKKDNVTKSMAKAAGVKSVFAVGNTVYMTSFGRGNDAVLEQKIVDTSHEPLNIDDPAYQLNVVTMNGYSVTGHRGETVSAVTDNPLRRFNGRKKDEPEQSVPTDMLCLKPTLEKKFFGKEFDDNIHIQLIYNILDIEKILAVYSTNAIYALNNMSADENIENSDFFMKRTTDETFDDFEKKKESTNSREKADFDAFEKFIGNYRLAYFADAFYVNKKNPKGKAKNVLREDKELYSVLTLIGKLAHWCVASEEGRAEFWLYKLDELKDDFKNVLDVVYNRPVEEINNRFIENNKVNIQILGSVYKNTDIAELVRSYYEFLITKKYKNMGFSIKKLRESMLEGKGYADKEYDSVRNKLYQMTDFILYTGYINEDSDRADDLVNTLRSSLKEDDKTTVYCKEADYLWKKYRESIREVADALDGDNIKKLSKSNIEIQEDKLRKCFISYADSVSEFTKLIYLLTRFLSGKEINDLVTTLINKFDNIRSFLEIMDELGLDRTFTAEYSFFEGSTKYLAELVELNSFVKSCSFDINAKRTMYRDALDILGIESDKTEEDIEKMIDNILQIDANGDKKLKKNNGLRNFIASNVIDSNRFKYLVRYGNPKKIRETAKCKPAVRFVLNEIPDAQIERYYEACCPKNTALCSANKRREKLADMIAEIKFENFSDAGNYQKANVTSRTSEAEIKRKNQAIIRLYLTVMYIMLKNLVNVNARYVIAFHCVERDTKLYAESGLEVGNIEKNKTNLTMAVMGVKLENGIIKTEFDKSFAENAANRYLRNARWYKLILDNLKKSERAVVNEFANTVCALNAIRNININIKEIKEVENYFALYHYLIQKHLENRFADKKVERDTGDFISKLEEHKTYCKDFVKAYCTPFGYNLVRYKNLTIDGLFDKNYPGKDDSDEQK
Description: crRNA (strand 1, pre-loaded); Mg2+; 40 mM Tris-HCl pH 7.5, 150 mM NaCl, 6 mM MgCl2, 1 mM DTT, 0.1% Tween-20, 0.2 mg/ml BSA; 25 C; 10 min per concentration, then washed. The note with it: tags: His6-TwinStrep-SUMO cleaved; N-terminal SNAP kept (SNAP-Surface 488); label: 3' end held by stalled T7 RNA polymerase.
Turning to B1, binding was characterised by a dissociation constant (Kd) of 9.9 ± 0.9 nM.

As to B2, the Kd was found to be 34 ± 6 nM.

For the molecule B3, the Kd was determined as 15.4 ± 1.6 nM. Against the preceding molecule, the Kd is about 2.2-fold lower.

The molecule B4 returned a Kd of 8.5 ± 0.4 nM.

Turning to B5, binding was put at a Kd of 8.6 ± 0.4 nM.

B6 came in with a Kd of 31 ± 1.6 nM.

As for B7, the Kd was 12.6 ± 0.7 nM.

As to B8, the affinity, expressed as Kd, was 9.5 ± 1.2 nM.

In turn, B9 displayed a Kd of 9 ± 1.2 nM.

On to B10, for which binding was put at a Kd of 9.8 ± 1.2 nM.

With B11, the Kd worked out at 38 ± 5 nM.

For B12, binding was put at a Kd of 18.3 ± 0.8 nM.

B13 had a Kd of roughly 60 nM.

B14 gave a Kd of 11.3 ± 1.3 nM.

B15 showed a Kd of 5.91 ± 0.24 nM.

For B16, the Kd was 64 ± 6 nM.

In the case of B17, binding was put at a Kd of 14.6 ± 1 nM.

As for B18, the Kd amounted to 63 ± 4 nM.

B19 had a Kd of 39 ± 4 nM. Compared with the last molecule, the Kd is about 1.6-fold lower.

Molecule B20 yielded a Kd of roughly 70 nM.

B21 registered a Kd of 13.2 ± 1.2 nM.

Molecule B22 displayed a Kd of 28 ± 5 nM.

Molecule B23 came in with a Kd of 12.4 ± 0.7 nM.

For B24, the Kd was found to be 50 ± 5 nM.

In turn, B25 registered a Kd of 10 ± 0.8 nM. This Kd lies about 5-fold lower than the previous one.

Molecule B26 came in with a Kd of 10.3 ± 0.5 nM.

As for B27, binding was put at a Kd of 13.1 ± 0.9 nM.

In turn, B28 had a dissociation constant (Kd) of 21.3 ± 0.9 nM. This Kd is about 1.6-fold higher than that of the molecule before.

In turn, B29 had a Kd of 35 ± 5 nM. This Kd lies about 1.6-fold higher than the previous one.

For B30, binding was put at a Kd of 6.6 ± 0.5 nM. Against the preceding molecule, the Kd is about 5.3-fold lower.

B31: the Kd was 37 ± 14 nM.
